Series [1] concerns rats. To be noted: long-term dietary treatment of rats; Goodman et al. 1984; cited from earlier work.
The conditions of series [2]: in vitro studies; Bombhard and Herbold 2005; cited from earlier work.
The conditions of series [3]: Harrison and Jollow 1987; cited from earlier work.
The nature of series [4]: Specific activity of the Prolia conjugate: biological activity by methods known in the art and total protein (Bradford). Here is the method: The free Prolia is removed by means of cation exchange chromatography (CEC). The reaction mixture is diluted with 20 ml Buffer A (50 mM Hepes, pH 6.5) and loaded onto a 20 ml HiPrep SPFF 16/10 column (GE Healthcare, Fairfield, CT) pre-equilibrated with Buffer A. Then the column is eluted with Buffer B (50 mM Hepes, 1 M NaCl, pH 6.5). Free Prolia is eluted by washing the column with 25 % Buffer B and the conjugate at 50 % Buffer B. The conductivity of the conjugate containing fractions is subsequently raised to -190 mS/cm with Buffer C (50 mM Hepes, 5 M NaCl, pH 6.9) and loaded onto a 20 ml HiPrep Butyl FF 16/10 column (GE Healthcare, Fairfield, CT) pre-equilibrated with Buffer D (50 mM Hepes, 3 M NaCl, pH 6.9). Free PSA-reagent is washed out within 5 CV Buffer D. Subsequently, the conjugate is eluted with 100 % Buffer E (50 mM Hepes, pH 6.9). The conjugate containing fractions are concentrated by UF/DF using a 10 kD membrane made of regenerated cellulose (88 cm2, cut-off 10 kD, Millipore). The final diafiltration step is performed against histidine buffer, pH 6.9 containing 150 mM NaCl. The preparation is analytically characterized by measuring total protein (Bradford) and biological activity according to methods known in the art. For the PSA-Prolia conjugate a specific activity of > 50 % in comparison to native Prolia is determined. The conjugate is additionally analytically characterized by Size Exclusion HPLC using a Agilent 1200 HPLC system equipped with a Shodex KW 803 column under conditions as previously described (Kolarich et al, Transfusion 2006;46:1959-77). It is shown that the preparation contains no free Prolia.
The free Prolia is removed by means of cation exchange chromatography (CEC). The reaction mixture is diluted with 20 ml Buffer A (50 mM Hepes, pH 6.5) and loaded onto a 20 ml HiPrep SPFF 16/10 column (GE Healthcare, Fairfield, CT) pre-equilibrated with Buffer A. Then the column is eluted with Buffer B (50 mM Hepes, 1 M NaCl, pH 6.5). Free Prolia is eluted by washing the column with 25 % Buffer B and the conjugate at 5 0% Buffer B. The conductivity of the conjugate containing fractions is subsequently raised to -190 mS/cm with Buffer C (50 mM Hepes, 5 M NaCl, pH 6.9) and loaded onto a 20 ml HiPrep Butyl FF 16/10 column (GE Healthcare, Fairfield, CT) pre-equilibrated with Buffer D (50 mM Hepes, 3 M NaCl, pH 6.9). Free PSA-reagent is washed out within 5 CV Buffer D. Subsequently the conjugate is eluted with 100% Buffer E (50 mM Hepes, pH 6.9). The conjugate containing fractions are concentrated by UF/DF using a 10 kD membrane made of regenerated cellulose (88 cm^2, cut-off 10 kD / Millipore). […] For the PSA-Prolia conjugate a specific activity of > 50 % in comparison to native Prolia is determined. […]

As for `Nc1ccccc1` [aniline], the “tumors in the spleen” value in series [1] was “induce tumors in the spleen”. For the same compound, in series [2], the “chromosome mutations / genotoxic activity” value was “potential to induce chromosome mutations”. Besides, the methemoglobinemia entry in series [3] was “induce methemoglobinemia”.

Turning to “PEG-Prolia conjugate: Prolia PEGylated with a linear 20 kD aminooxy PEGylation reagent, m-toluidine as catalyst”, the “specific activity in comparison to native Prolia” value in series [4] (Reference Example 44 Method 1, alternative (oxidation, then m-toluidine and 20 kD aminooxy-PEG, 5-fold)) is greater than 50%; in series [4] (Reference Example 44 Method 3, alternative (simultaneous, 20 kD aminooxy-PEG, 5-fold)) it was greater than 50%.

As for “PSA-Prolia conjugate: Prolia polysialylated with 20 kD aminooxy-PSA reagent, m-toluidine as catalyst”, the “specific activity in comparison to native Prolia” value in series [4] (Reference Example 30 Method 1, alternative (oxidation, then m-toluidine and 20 kD aminooxy-PSA, 5-fold)) is recorded as greater than 50%; in series [4] (Reference Example 30 Method 3, alternative (simultaneous, 20 kD aminooxy-PSA, 5 fold)), greater than 50%.

Values taken from patent EP3505186B1, “NUCLEOPHILIC CATALYSTS FOR OXIME LINKAGE” (Takeda Pharmaceutical Company Limited, priority 2010, dated 2012).
